# Results: the supplement of paper PMC9732359
# ± gives the uncertainty stated by the source.
# Test: protein stability index of a GFP-peptide fusion (yeast GPS) (PSI 1-4); higher = more stable; sorted into four equal gates, so the index is relative within each strain
# How it was run: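 Tiled 17-residue peptides from yeast proteins were fused downstream of GFP on a plasmid that also expresses Cherry, and the pooled library was carried in yeast. Mid-log cultures grown in leucine-free medium were sorted into four equal gates by GFP/Cherry fluorescence ratio. Plasmids from each gate were PCR-amplified and Illumina-sequenced, and reads were assigned to strains by barcodes. Each peptide's protein stability index is the sum, over gates, of the gate's read frequency multiplied by its gate number.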
Sequence,protein stability index (pdr5∆),protein stability index (san1∆),protein stability index (ubr1∆),protein stability index (doa10∆)
LKIYYKEEFSSDESIER [RRI2],2.43 ± 0.15,2 ± 0.23,2.9 ± 0.11,–
DKIPLNYAMTRNILHNT [SRB5],2.34 ± 0.057,1.83 ± 0.081,1.93 ± 0.035,1.82 ± 0.057
KSSGSSMATPTHSDSHE [ROX3],2.97 ± 0.1,2.82 ± 0.064,2.52 ± 0.091,3.08 ± 0.16
DAAAEEEKEEEAAEESD [RPP1B],3.25 ± 0.13,3.04 ± 0.1,3.29 ± 0.073,3.19 ± 0.13
SEYNFLEGSVSLPRFSK [DIS3],3.18 ± 0.068,3.11 ± 0.05,3.2 ± 0.05,3.1 ± 0.078
FAWSKPSTGSNLQQQQQ [YGR119C/NUP57],3.06 ± 0.063,3.02 ± 0.05,2.95 ± 0.045,3.02 ± 0.061
EEQEEEPDREKIKLLTQ [RPC19],3.24 ± 0.11,2.52 ± 0.15,2.65 ± 0.23,2.93 ± 0.25
VVAKKDFNQAKHEEIDT [RPS10A],2.54 ± 0.19,3.22 ± 0.099,3.09 ± 0.081,3.51 ± 0.2
NTENNDPDIPMTIDLEP [IRR1],2.94 ± 0.16,2.48 ± 0.19,3.14 ± 0.12,3.07 ± 0.17
STLKSFFTNPNKKRPSS [YOR098C/NUP1],3.06 ± 0.049,3.08 ± 0.043,2.91 ± 0.045,2.79 ± 0.052
SLYIYYLIKLLGFEVKD [SIR2],2.13 ± 0.13,2.31 ± 0.079,2.27 ± 0.15,2.32 ± 0.12
ISSSTQCLRFLKETVIP [POP6],1.87 ± 0.11,1.26 ± 0.22,2.27 ± 0.073,1.52 ± 0.074
IQNKKIQEQRVKDKQSK [RPN8],2.78 ± 0.13,–,2.92 ± 0.13,1.97 ± 0.11
QLYFKKKVNYKVTSYDI [ISW2],2.56 ± 0.052,2.7 ± 0.07,2.72 ± 0.047,2.63 ± 0.058
LKRSTELLETVSLTKRK [YIL149C/MLP2],2.06 ± 0.045,2.09 ± 0.079,1.6 ± 0.027,1.66 ± 0.056
CNERVPLSVATELMNRS [SRP72],2.52 ± 0.044,2.26 ± 0.052,2.19 ± 0.036,2.43 ± 0.033
SMINSVSPTNVMGTPLT [PGD1],2.94 ± 0.059,2.73 ± 0.042,2.84 ± 0.047,2.8 ± 0.053
GQCRPISKTVRFNVVKV [RPS11A],2.93 ± 0.22,2.76 ± 0.097,2.77 ± 0.1,3.31 ± 0.12
KIRRHPNIMLIFGSGFG [FAS1],2.07 ± 0.061,1.68 ± 0.13,1.39 ± 0.054,1.9 ± 0.057
QVLVCTATLAWGVNLPA [BRR2],1.91 ± 0.088,2.1 ± 0.089,2.12 ± 0.059,1.53 ± 0.11
RYLAVTLQDIGFYQIKK [YMR129W/POM152],2.65 ± 0.043,2.73 ± 0.068,2.62 ± 0.043,2.53 ± 0.046
FETFLVDVNNKFIALCE [SIN4],3.05 ± 0.049,3.09 ± 0.045,3.1 ± 0.059,2.94 ± 0.062
SSVIQNYDIITASSLAH [YML103C/NUP188],1.88 ± 0.066,1.98 ± 0.092,2.03 ± 0.041,1.69 ± 0.079
HWMGSSVSGSPRPSYSS [YMR129W/POM152],3.11 ± 0.089,2.74 ± 0.07,2.87 ± 0.084,2.98 ± 0.088
DRKKDKNVKHSGNIQLD [RPL12A],3.46 ± 0.17,3.38 ± 0.073,3.18 ± 0.096,3.31 ± 0.12
